Biological target: T1, fibrinogen (Homo sapiens, UniProt P02671)
T1 construct: purchased Enzyme Research Laboratories (South Bend, Ind.)
T1 sequence (P02671 20-644 isoform P02671-2 limits assumed): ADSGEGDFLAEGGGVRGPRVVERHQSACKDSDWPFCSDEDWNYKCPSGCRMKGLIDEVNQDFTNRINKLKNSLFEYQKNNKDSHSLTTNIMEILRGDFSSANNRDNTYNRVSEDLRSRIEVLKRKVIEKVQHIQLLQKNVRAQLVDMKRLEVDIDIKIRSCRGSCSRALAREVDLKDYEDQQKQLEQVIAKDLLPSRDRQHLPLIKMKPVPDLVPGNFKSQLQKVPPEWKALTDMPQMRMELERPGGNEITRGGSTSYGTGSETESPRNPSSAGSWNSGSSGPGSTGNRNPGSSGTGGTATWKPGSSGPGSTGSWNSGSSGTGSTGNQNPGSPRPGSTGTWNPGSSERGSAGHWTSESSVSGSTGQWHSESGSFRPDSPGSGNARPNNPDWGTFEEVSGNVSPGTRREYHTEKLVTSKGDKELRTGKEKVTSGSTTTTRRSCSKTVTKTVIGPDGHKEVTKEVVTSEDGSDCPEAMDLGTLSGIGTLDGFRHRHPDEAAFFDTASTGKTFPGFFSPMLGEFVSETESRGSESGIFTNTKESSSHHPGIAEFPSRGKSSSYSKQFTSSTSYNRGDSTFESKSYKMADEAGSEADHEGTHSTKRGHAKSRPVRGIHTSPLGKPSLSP
T1 sequence (P02675 31-491 partner): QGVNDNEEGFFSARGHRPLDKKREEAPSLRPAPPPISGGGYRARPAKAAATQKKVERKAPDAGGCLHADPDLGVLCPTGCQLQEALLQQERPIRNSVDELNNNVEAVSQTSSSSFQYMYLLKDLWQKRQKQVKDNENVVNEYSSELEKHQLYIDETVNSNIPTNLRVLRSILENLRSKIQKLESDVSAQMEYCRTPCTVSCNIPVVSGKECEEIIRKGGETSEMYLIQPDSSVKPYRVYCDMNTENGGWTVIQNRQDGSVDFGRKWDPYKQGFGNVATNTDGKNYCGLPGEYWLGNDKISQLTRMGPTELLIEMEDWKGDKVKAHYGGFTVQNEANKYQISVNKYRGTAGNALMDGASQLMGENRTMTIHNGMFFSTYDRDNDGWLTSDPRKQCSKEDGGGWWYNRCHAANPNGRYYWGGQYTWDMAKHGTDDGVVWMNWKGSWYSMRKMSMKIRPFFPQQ
T1 sequence (P02679 27-437 isoform P02679-2 partner limits assumed): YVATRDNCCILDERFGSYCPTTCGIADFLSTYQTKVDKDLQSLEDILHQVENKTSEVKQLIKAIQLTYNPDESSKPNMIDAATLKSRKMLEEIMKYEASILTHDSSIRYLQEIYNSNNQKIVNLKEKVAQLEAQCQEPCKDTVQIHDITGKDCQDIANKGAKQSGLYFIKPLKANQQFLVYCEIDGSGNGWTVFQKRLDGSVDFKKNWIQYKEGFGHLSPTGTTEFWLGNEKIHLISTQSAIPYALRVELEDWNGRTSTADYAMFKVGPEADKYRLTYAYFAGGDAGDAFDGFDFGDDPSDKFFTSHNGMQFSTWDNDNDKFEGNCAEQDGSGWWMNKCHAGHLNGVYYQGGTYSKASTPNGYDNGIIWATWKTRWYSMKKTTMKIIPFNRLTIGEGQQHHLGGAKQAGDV
Assay: Factor XIIIa-mediated incorporation of FITC-labeled thymosin β4 into fibrinogen (spectrophotometric)
Type: biochemical
Protocol: Reactions of incorporation of FITC-labeled and unlabeled thymosin β4 into fibrinogen and fibrin were performed in Eppendorf tubes containing a mixture of fibrinogen at 3 mg/mL (9 μM) and thymosin β4 or FITC-labeled thymosin β4 at […] (30 μM) in 100 μL TBS with 2.5 mM CaCl2. The reactions were initiated by addition of FXIIIa(Ca) or FXIIIa(Thr) to final concentration of 30 μg/mL. The final concentration of thrombin in the FXIIIa(Thr)-containing mixtures was made at 2.5 NIH u/mL, sufficient to rapidly form fibrin clot which was observed visually. The reactions with FITC-labeled thymosin β4 lasted for 4 hours at 37° C. in the dark and were stopped by heat inactiviation of the enzymes in boiling water for 5 min during fibrinogen and fibrin denatured and precipitated. The pellets were centrifuged and washed 3 times in TBS and then solubilized. The amounts of fibrin(ogen) and FITC-labeled thymosin β4 in the solubilized pellet were determined spectrophotomertrically using absorption molar coefficients E280,1%=15.0 and ε495=72,000 M^−1cm^−1, respectively. To prepare samples with unlabeled thymosin β4 for analysis by SDS-PAGE and Western blot the reaction mixtures at the indicated time were heat-inactivated as above and solubilized by addition of sample buffer (Invitrogen) containing SDS and reducing agent.

- degree of incorporation into fibrinogen (fibrinogen 9 μM, thymosin β4 30 μM, factor XIIIa, 4 hours, 37° C.): 0.2 moles per mole
- molar incorporation ratio of thymosin β4 to fibrinogen (physiological concentrations of fibrin(ogen) and factor XIII): 0.2
Substance: thymosin β4
